The text below walks through data of article doi:10.1101/2025.07.09.663820 (bioRxiv, 2025).

For test [1], the target named is CHIP13 extracellular domain (residues 33-253) (Lotus japonicus). In words: SEC. Background: SEC sorts molecules by how far they enter the pores of the column.
For test [2], the target named is CHIP13 extracellular domain (residues 33-253) (Lotus japonicus, UniProt D3KU00, N-glycans (one on N143)).

One may read the stoichiometry N as the number of molecules, sites or subunits per partner or assembly. Regarding “CHIP13 extracellular domain (residues 33-253) (domain or fragment)”, the stoichiometry N in test [1] turned out to be 2.

B1: Nb-aCHIP13 (VHH)
VHH: QLQLVESGGGLVQAGGSLRLSCATSGTTFRLNTMGWYRQAPGKQRELVATISRDFKTNYADSVKGRFTISRDNAKHTVDLQMNSLTPEDTAVYYCLVRDQREWYGPEYDNWGRGTQVTVSS
The Kd is the constant that tells how readily two partners part at equilibrium. B1 yielded a Kd in test [2] of 8.1 nM. This lies in the single-digit nanomolar range.
